Measured values taken from patent US9028829B2, “Uniform field magnetization and targeting of therapeutic formulations” (The Children's Hospital of Philadelphia, priority 2004, dated 2015).

System: Pronase
Experiment: Protection of MNP-encapsulated catalase from proteolysis
Type: in vitro ADME
Details: by 30 mins
Method: Protection and activity of MNP-encapsulated catalase. The capacity of MNP to protect the catalase cargo was measured using a proteolysis assay. Samples were incubated for 60 min at 37° C. with shaking in a 0.2 wt % buffered Pronase, a robust mixture of proteinases which completely digests proteins into individual amino acids. The amount of catalase retained by MNP post proteolysis was determined following MNP separation by centrifugation (20 min, 4° C. at […]) using the radioactivity assay described above. The enzymatic activity of MNP-bound catalase retained over time was measured in comparison with free catalase.

B1: free catalase: bovine liver catalase, not encapsulated (protein, UniProt P00432 2-527, looked up)
Catalase: ADNRDPASDQMKHWKEQRAAQKPDVLTTGGGNPVGDKLNSLTVGPRGPLLVQDVVFTDEMAHFDRERIPERVVHAKGAGAFGYFEVTHDITRYSKAKVFEHIGKRTPIAVRFSTVAGESGSADTVRDPRGFAVKFYTEDGNWDLVGNNTPIFFIRDALLFPSFIHSQKRNPQTHLKDPDMVWDFWSLRPESLHQVSFLFSDRGIPDGHRHMNGYGSHTFKLVNANGEAVYCKFHYKTDQGIKNLSVEDAARLAHEDPDYGLRDLFNAIATGNYPSWTLYIQVMTFSEAEIFPFNPFDLTKVWPHGDYPLIPVGKLVLNRNPVNYFAEVEQLAFDPSNMPPGIEPSPDKMLQGRLFAYPDTHRHRLGPNYLQIPVNCPYRARVANYQRDGPMCMMDNQGGAPNYYPNSFSAPEHQPSALEHRTHFSGDVQRFNSANDDNVTQVRTFYLKVLNEEQRKRLCENIAGHLKDAQLFIQKKAVKNFSDVHPEYGSRIQALLDKYNEEKPKNAVHTYVQHGSHLSAREKANL
Question: How did the “catalase activity on exposure to proteolytic enzymes” value turn out when B1 was run?
Answer: total deactivation
